Data on two molecules can be found in article PMC13038408.

The term Kd denotes the equilibrium constant for the complex coming apart. Read a low Kd as a tighter complex.

The experiment deals with RSV90 IgG (human). Kind of experiment: SPR.

Some results are limits rather than exact numbers.

Chain of RSV90 IgG (human) (heavy, as listed by the source, chain 1 of 2): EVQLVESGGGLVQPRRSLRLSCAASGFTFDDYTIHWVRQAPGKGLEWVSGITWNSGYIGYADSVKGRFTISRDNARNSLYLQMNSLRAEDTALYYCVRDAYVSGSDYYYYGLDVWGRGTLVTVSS
Chain of RSV90 IgG (human) (light, as listed by the source, chain 2 of 2): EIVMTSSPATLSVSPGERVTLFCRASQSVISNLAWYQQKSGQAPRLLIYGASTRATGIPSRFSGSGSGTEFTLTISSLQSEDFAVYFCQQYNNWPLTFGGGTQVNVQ

B1: RSVF-multi-3 (designed binder)
chain: DDLVDIFLRAFAKAAKVTRFDKNRGIIKTFSEEETEKLFKSLTEEEVEKIESALKSTNKAVVVLGDGDIEIEIDLDKLYALINDLDISNDQKKEMSNNFFEYLRKIAKK
On to B1, for which the Kd is over 10 µM.

B2: RSVF-multi-4 (designed binder)
chain: MKLVIARVKSPKVKRLSEEDIEKIKSALKSTNKAVVTIKDENGEEIEVEVRLLTLEEALKYINDLPISNDAKKLMSNNIHKALEPGRTVVFGPEGCEERDKNRGIIKTFSTDVKLDETYFFFRVE
Molecule B2 yielded a Kd of over 10 µM.
